From publication PMC2824750

B1: GST-Ehenolase (enzyme)
chain: MSIQKVHAREILDSRGNPTIEVEITTGKGMFRSCVPSGASTGVHEAVELRDGDKKRYGGKGVLKAVENVNTIIGPALLGKNVLNQAELDEMMIKLDGTNNKGKLGANAILGCSMSICRAAAAEKGLPLYKYLAELTGHKEMTMPVPCFNVINGGAHAGNALAMQEFMICPTGATNFHEALRMAAETYQCLKVVIKAKYGQDATNVGDEGGFAPNVSGAREALDLLVEAIAKAGYTGKIEIAMDCAASEFYNEETKKYDLGKKIPADKKDPSLVKDVDGLIAEYVDYGKHYPIASIEDPFAEDDWAAWNKFTVEHGNFQIVGDDLLVTNPARVQMAMDKNACNSVLIKVNQIGTLTETFKTIKMAQEKGWGVMASHRSGETEDTFIADLVVGLNCKQIKTGAPCRSERLCKYNQLMRIEEELGNIPYAGKNWRNSTA
B2: endogenous enolase of E. histolytica trophozoites (enzyme)
chain: B1 chain

Tests used:
[1] = biological target: in vitro translated 35S-labelled Ehmeth, full length (TNT-Ehmeth) (E. histolytica)
[2] = biological target: calmodulin, histidine, hemagglutin (CHH)-tagged-Ehmeth (E. histolytica); test: co-IP; anti-HA immunoprecipitation from nuclear lysate of E. histolytica trophozoites expressing a CHH-tagged protein, HNTG buffer (20 mM Hepes pH 7.5, 150 mM NaCl, 0.1% Triton, 10% glycerol), 4°C; blot with anti-enolase; trophozoites grown in regular medium or starved of glucose for 12 hours

Row | Binder | inhibition of the tRNA^Asp methyltransferase activity of recombinant Ehmeth (0.4 nmol) by GST-Enolase (2 nmol) [1] [% inhibition] | fold more complex after glucose starvation than in regular medium [2] [fold]
1 | B1 | 60 | 
2 | B2 |  | 3
